# According to publication PMC13140710, “Small heat shock proteins HspB1 and HspB5 differentially alter the condensation and aggregation of the TDP‐43 low‐complexity domain” (Protein Science : A Publication of the Protein Society, 2026):
# T1: HspB5^WT (wild-type human HspB5, αB‐crystallin) (human, UniProt P02511 1-175, Alexa Fluor 647 (NHS ester) label in TCCD and in the condensate partitioning experiment; unlabelled in the other assays)
# T1 construct: Small heat shock protein HspB5 (αB-crystallin), human, wild type, full-length isoform; Vector pET3a or pET24a; source: E. coli BL21(DE3), purified
# T1 sequence (looked up): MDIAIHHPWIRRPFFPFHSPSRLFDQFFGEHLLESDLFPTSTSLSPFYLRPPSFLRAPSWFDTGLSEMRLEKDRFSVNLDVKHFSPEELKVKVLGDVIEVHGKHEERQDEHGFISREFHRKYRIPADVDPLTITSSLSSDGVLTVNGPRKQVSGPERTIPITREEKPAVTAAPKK
# B1: TDP‐43 low‐complexity domain (TDP‐43^LCD), amino acids 267–414 of TDP‐43 (domain or fragment, UniProt Q13148 267-414, looked up)
# chain: NRQLERSGRFGGNPGGFGNQGGFGNSRGGGAGLGNNQGSNMGGGMNFGAFSINPAMMAAAQAALQSSWGMMGMLASQQNQSGPSGNNQNQGNMQREPNQAFGSGNNSYSGSNSGAAIGWGSASNAGSGSGFNGGFGSSMDSKSSGWGM
# modifications: Cy5 (mono NHS ester) label in TCCD and, at 1% of the protein, in FRAP; unlabelled in the other assays
# notes: source: E. coli BL21(DE3), purified from inclusion bodies (HisTrap in 8 M urea), buffer exchanged into 20 mM MES pH 6.0
# Experiments:
# [1] = target: T1, HspB5^WT (wild-type human HspB5, …); experiment: two-color coincidence detection (TCCD), confocal single-molecule fluorescence; fluorescently labelled TDP-43^LCD and labelled sHsp, diluted to 200 nM in 20 mM MES pH 6.0, 25°C, both in solution; peaks found in both channels within 10 ms counted as coincident (hetero-oligomers); conditions: both partners purified
# [2] = target: B1; experiment: as above; conditions: both partners purified
Binder,binding result [1],binding result [2]
B1,binds,–
"HspB5^ACD (core α‐crystallin domain of HspB5, residues 68–162) (domain or fragment, human, UniProt P02511 68-162, looked up, Alexa Fluor 647 (NHS ester) label in TCCD and in the condensate partitioning experiment, Small heat shock protein HspB5 (αB-crystallin), α-crystallin domain, residues 68-162; pET28 vector, gift of A. Laganowsky (Laganowsky et al., 2010); also called core domain of HspB5; source: E. coli BL21(DE3), purified) MRLEKDRFSVNLDVKHFSPEELKVKVLGDVIEVHGKHEERQDEHGFISREFHRKYRIPADVDPLTITSSLSSDGVLTVNGPRKQVSGPERTIPIT",–,binds
